Results taken from article PMC4961446, “Dual Role of a Biosynthetic Enzyme, CysK, in Contact Dependent Growth Inhibition in Bacteria” (PLoS ONE, 2016).
Where “and” joins values, the source holds several entries; their conditions need not be identical. Identical values can stand only once.

How the values were obtained:
[1] = biological target: CdiA-CT^536(H3193A) (Escherichia coli strain 536 (UPEC536)); assay: AUC; sedimentation velocity, 40,000 rpm, 15°C, 20 mM HEPES pH 7.5, 250 mM NaCl; 10, 20 and 30 μM; c(s) model in SEDFIT; complexes mixed and incubated at 4°C for 1 h
[2] = biological target: CdiA-CT^(M)/CysK complex (heterotetramer) (Escherichia coli strain 536 (UPEC536) | E. coli K12) (UniProt P0ABK5); assay: SPR; Biacore 3000, 30°C; CdiA-CT^(M) immobilized on a separate CM5 chip (760 RU), first 0.6 μM CysK (dimer) passed over it to form the CdiA-CT^(M)/CysK complex, then CdiI injected at 2.5-40 nM; local fitting, separate ka/kd model
[3] = biological target: CdiA-CT^(M)/CysK complex (heterotetramer) (Escherichia coli strain 536 (UPEC536) | E. coli K12) (UniProt P0ABK5); assay: ITC; 30°C, 20 mM HEPES pH 7.5, 150 mM NaCl; CdiA-CT^(M) or its preformed complex in the sample cell, CdiI or CysK (dimer concentration) in the syringe; one-site model for CdiA-CT^(M)/CdiI, two binding site model where CysK is involved; apparent enthalpy
[4] = biological target: CdiA-CT^536(H3193A) (Escherichia coli strain 536 (UPEC536)); assay: as above
[5] = biological target: CdiA-CT^536(H3193A) (Escherichia coli strain 536 (UPEC536)); assay: SPR; Biacore 3000, 30°C; CdiA-CT^(M) immobilized on CM5 chip (723 RU); 10 mM HEPES pH 7.5, 150 mM NaCl, 20 μl/min; analyte CdiI 5-40 nM (1:1 Langmuir model) or CysK 0.4-6.4 μM dimer
[6] = biological target: SpoIISB (Bacillus subtilis) (UniProt O34800); settings: cited from earlier work
[7] = biological target: RelE (Escherichia coli) (UniProt P0C077); settings: cited from earlier work
[8] = biological target: T1, CysK (Escherichia coli, UniProt P0ABK5); assay: ITC
T1 chain: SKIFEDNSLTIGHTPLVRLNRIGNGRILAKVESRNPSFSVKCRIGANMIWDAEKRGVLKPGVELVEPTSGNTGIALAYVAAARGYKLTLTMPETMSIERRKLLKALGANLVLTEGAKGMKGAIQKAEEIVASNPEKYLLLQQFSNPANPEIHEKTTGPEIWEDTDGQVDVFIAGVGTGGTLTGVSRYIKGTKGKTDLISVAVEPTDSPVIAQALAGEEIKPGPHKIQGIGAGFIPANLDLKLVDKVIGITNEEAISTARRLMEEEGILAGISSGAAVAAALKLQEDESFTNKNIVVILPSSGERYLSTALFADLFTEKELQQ

[9] = biological target: CdiA-CT^(M)/CdiI complex (heterodimer) (Escherichia coli strain 536 (UPEC536)); assay: AUC; sedimentation velocity, 40,000 rpm, 15°C, 20 mM HEPES pH 7.5, 250 mM NaCl; 10, 20 and 30 μM; c(s) model in SEDFIT; complexes mixed and incubated at 4°C for 1 h; settings: scale: CysK chain per CdiA-CT^(M)/CdiI heterodimer
[10] = biological target: the molecule itself; assay: SEC; analytical SEC, Superdex 200 Increase 10/300 GL, 20 mM HEPES pH 7.5, 250 mM NaCl, ~15°C; samples 10, 20 and 30 μM; for complexes purified proteins mixed in varying molar ratios and incubated at 4°C for 1 h; fractions analysed by SDS-PAGE
[11] = biological target: the molecule itself; assay: AUC; sedimentation velocity, 40,000 rpm, 15°C, 20 mM HEPES pH 7.5, 250 mM NaCl; 10, 20 and 30 μM; c(s) model in SEDFIT; complexes mixed and incubated at 4°C for 1 h
[12] = biological target: CdiA-CT^(M)/CdiI complex (heterodimer) (Escherichia coli strain 536 (UPEC536)); assay: ITC; 30°C, 20 mM HEPES pH 7.5, 150 mM NaCl; CdiA-CT^(M) or its preformed complex in the sample cell, CdiI or CysK (dimer concentration) in the syringe; one-site model for CdiA-CT^(M)/CdiI, two binding site model where CysK is involved; apparent enthalpy

CdiA-CT^(M)/CdiI complex (heterodimer) (Escherichia coli strain 536 (UPEC536)), sequence (Q0T964 whole entry, one chain of several): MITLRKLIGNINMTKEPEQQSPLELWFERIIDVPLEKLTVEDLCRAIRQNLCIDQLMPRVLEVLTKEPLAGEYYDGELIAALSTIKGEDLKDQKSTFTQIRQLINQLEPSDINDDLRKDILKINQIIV
SpoIISB (Bacillus subtilis), sequence (O34800 whole entry): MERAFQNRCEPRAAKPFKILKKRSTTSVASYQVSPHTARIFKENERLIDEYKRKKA
RelE (Escherichia coli), sequence (P0C077 whole entry): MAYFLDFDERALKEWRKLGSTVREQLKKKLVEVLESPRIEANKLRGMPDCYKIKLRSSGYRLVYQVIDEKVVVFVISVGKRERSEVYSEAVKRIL

Molecule CdiI (natural protein) has a stoichiometry N (CdiI per CdiA-CT^(M) (1:1)) [1] of 1, a Kd [2] of 0.3 nM and a koff [2] of 0.0005 s⁻¹. For the same molecule, the kon [2] was 1.5e+06 M⁻¹ s⁻¹, the KD1, first site [3] was 1.3 nM and the KD2, second site [3] was 1.1 nM. For the same molecule, the dH, first site [3] was -26.7 kcal/mol, the dH, second site [3] was -24.2 kcal/mol and the stoichiometry N [3] was 1.89. For the same molecule, the Kd [4] was 26.4 nM, the dH [4] was -29 kcal/mol and the stoichiometry N [4] was 0.993. For the same molecule, the Kd [5] was 12.8 nM, the koff [5] was 0.065 s⁻¹ and the kon [5] was 5.1e+06 M⁻¹ s⁻¹.

In the case of SpoIISA (from UniProt O34853), the Kd [6] is listed as 0.46 nM.

For RelB (from UniProt P0C079), the Kd [7] is listed as 0.33 nM.

B1: CdiA-CT CT (protein)
chain: VENNALSLVARGCAVAAPCRTKVAEQLLEIGAKAGMAGLAGAAVKDMADRMTSDELEHLITLQMMGNDEITTKYLSSLHDKYGSGAASNPNIGKDLTDAEKVELGGSGSGTGTPPPSENDPKQQNEKTVDKLNQKQESAIKKIDNTIKNALKDHDIIGTLKDMDGKPVPKENGGYWDHMQEMQNTLRGLRNHADTLKNVNNPEAQAAYGRATDAINKIESALKGYGI
With B1 the Kd [8] was 79.3 nM and 89.2 nM.

B2: CysK (O-acetylserine sulfyhydrylase) (enzyme, E. coli K12, UniProt P0ABK5 1-323, looked up)
chain: MSKIFEDNSLTIGHTPLVRLNRIGNGRILAKVESRNPSFSVKCRIGANMIWDAEKRGVLKPGVELVEPTSGNTGIALAYVAAARGYKLTLTMPETMSIERRKLLKALGANLVLTEGAKGMKGAIQKAEEIVASNPEKYLLLQQFSNPANPEIHEKTTGPEIWEDTDGQVDVFIAGVGTGGTLTGVSRYIKGTKGKTDLISVAVEPTDSPVIAQALAGEEIKPGPHKIQGIGAGFIPANLDLKLVDKVIGITNEEAISTARRLMEEEGILAGISSGAAVAAALKLQEDESFTNKNIVVILPSSGERYLSTALFADLFTEKELQQ
notes: CysK (O-acetylserine sulfhydrylase), amplified from E. coli K12 genomic DNA, in pNIC28-Bsa4; Cloned between NcoI/XhoI of pNIC28-Bsa4; also called CysK dimer; source: E. coli BL21(DE3), purified (Co-NTA, gel filtration)
With B2 the stoichiometry N (CysK chain per CdiA-CT^(M) chain (2:2)) [1] was 1, the stoichiometry N [9] was 1 and the “stoichiometry N” value [10] was 2. The “stoichiometry N” value [11] was 2, the KD1, first site [4] was 79.3 nM and the KD2, second site [4] was 89.2 nM. The dH, first site [4] was -5.62 kcal/mol, the dH, second site [4] was -20.2 kcal/mol and the stoichiometry N [4] was 0.494. The KD1, first site [12] was 12 nM, the KD2, second site [12] was 13.4 nM and the dH, first site [12] was -11 kcal/mol. For the same molecule, the dH, second site [12] was -26.7 kcal/mol, the stoichiometry N [12] was 0.512 and the Kd [5] was 32 nM. It also gave a koff [5] of 0.00014 s⁻¹ and a kon [5] of 6200 M⁻¹ s⁻¹.
